The values that follow come from US20060115837A1 (WASHINGTON UNIVERSITY, published 2006).

Test [1] concerns the target West Nile Virus envelope protein on WNV virions (West Nile Virus) (UniProt Q9Q6P4). Description: cell-based or functional assay.
Test [2] deals with T1, West Nile Virus envelope protein on WNV virions (West Nile Virus, UniProt Q9Q6P4 291-791).
T1 sequence: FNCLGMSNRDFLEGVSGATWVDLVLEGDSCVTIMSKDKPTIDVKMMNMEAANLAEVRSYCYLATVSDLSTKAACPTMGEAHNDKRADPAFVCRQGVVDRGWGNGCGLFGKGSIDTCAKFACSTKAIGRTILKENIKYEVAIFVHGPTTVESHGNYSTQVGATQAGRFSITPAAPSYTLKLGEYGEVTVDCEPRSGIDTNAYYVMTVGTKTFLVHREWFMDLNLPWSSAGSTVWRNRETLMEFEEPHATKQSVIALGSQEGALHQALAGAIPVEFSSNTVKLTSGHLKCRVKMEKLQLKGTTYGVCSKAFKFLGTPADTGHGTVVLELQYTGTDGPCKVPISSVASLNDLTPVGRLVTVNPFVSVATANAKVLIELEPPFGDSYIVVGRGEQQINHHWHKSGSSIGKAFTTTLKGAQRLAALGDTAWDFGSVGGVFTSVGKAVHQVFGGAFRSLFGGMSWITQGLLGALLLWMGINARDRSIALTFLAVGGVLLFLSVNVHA
Description: cell-based or functional assay.

monoclonal antibody E60: the blockade of cellular attachment of WNV to Vero cells (cell-associated viral RNA by fluorogenic RT-PCR), fold reduction in test [1] lay in the range of 8 to 9 fold.

B1: monoclonal antibody E16 (antibody, V domains shown)
VH: QVQLQQSGSELMKPGASVQISCKATGYTFSDYWIEWVKQRPGHGLEWIGILCGTGRTRYNEKLKAMATFTADTSSNTAFMQLSSLTSEDSAVYYCARSASYGDYADYWGHGTTLTVSS
VL: DIVMTQSHKFMSTSVGDRVSITCKASQDVSTAVAWYQQKPGQSPKLLISWASTRHTGVPDRFTGSGSGTDYTLTISSVQAEDLALYYCQQHYTTPLTFGAGTKLELK
For the molecule B1, the “blockade of cellular attachment of WNV to Vero cells (cell-associated viral RNA by fluorogenic RT-PCR), fold reduction” value in test [2] amounted to 3.5 fold.
